Laboratory results as given in the RNAGym collection of RNA variant scans (doi:10.7554/elife.90254).

B1: LINE1-full (parent)
chain: UACGUAGGUGGUUUUCCCCUGAUAGUGCUAAGGGGGCCUGGAAGUUUGGACUGGGCAGAGCUCAACACAGCGUGGCAAAGUGGCUGUGGCUAGACUGCCUCUCUGGAUUCCUCGUCACUCAGCAGGGCAUCUCUGAGAGAAAUGCC

Variants of: B1
Assay: self-cleavage, relative activity (ratio to wild type); higher = more cleavage; in vitro, sequencing; the parent is a self-cleaving ribozyme

| Variant | self-cleavage |
| --- | --- |
| UACGUAGGUGGUUUUCCCCUGAUAGUGCUAAGGGGGCCUGGAAGUUUGGACUGGGCAGAGCUCAACACAGCGUGGCAAAGUGGCUGCGGCUAGACUGCCUCUCUGGAUUCCUCGUCACUCAGCAGGGCAUCUCUGAGAGAACUGCC [U87C A142C] | 0.24 |
| UACGUAGGUGGUUUUCCCCUGAUAGUGCUAAGGGGGCCUGGAUGUUUGGACUGGGCAGAGCUCAACACAGCGAGGCAAAGUGGCUGUGGCUAGACUGCCUCUCUGGAUUCCUCGUCACUCAGCAGGGCAUCUCUGAGAGAAAUGCC [A43U U73A] | 0.93 |
| UACGUAGGUGGUUUUCCCCUGAUAGUGCUAAGGGGGCCUGGAAGUUUGGACUGGGCAGAGCUCAACACAGCGUGGCAAAGUGGCUGUGGCUAGACUGCUUCUCUGGAUUCCUCGUCACCCAGCAGGGCAUCUCUGAGAGAAAUGCC [C99U U119C] | 0.96 |
| UACGUAGGUGGUUUUCCCCUGAUGGUGCUAAGGGGGCCUGGAAGUUUGGACUGGGCAGAGCUCAACACAGCGUGGCAAAGUGGCUGUGGCUAGACUGCCUCUCUGGAUUCCUCGUCACCCAGCAGGGCAUCUCUGAGAGAAAUGCC [A24G U119C] | 0.83 |
| UACGUAGGUGGUUUUCCCCUGAUAGCGCUAAGGGGGCCUGGACGUUUGGACUGGGCAGAGCUCAACACAGCGUGGCAAAGUGGCUGUGGCUAGACUGCCUCUCUGGAUUCCUCGUCACUCAGCAGGGCAUCUCUGAGAGAAAUGCC [U26C A43C] | 1.63 |
| UACGUAGGUGGUUUUCCCCUGAUAGUGCUAAGGGGGCCUGGAAGUAUGGACUGGGCAGAGCUCAACACAACGUGGCAAAGUGGCUGUGGCUAGACUGCCUCUCUGGAUUCCUCGUCACUCAGCAGGGCAUCUCUGAGAGAAAUGCC [U46A G70A] | 0.24 |
| UACGUAGGUGGUUUUCCCCCGAUAGUGCUAAGGGGGCCUGGAAGUUUGGACUGAGCAGAGCUCAACACAGCGUGGCAAAGUGGCUGUGGCUAGACUGCCUCUCUGGAUUCCUCGUCACUCAGCAGGGCAUCUCUGAGAGAAAUGCC [U20C G54A] | 0.65 |
| UACGUAGGUGGUUUUCCCCUGAUAGUGCUAAGGGGGCCUGGAAGUUUGGACUGGGCAGAGCUCAACACAGCGUGGCAAAGUGGCUGUGGCUAGACUGCCUCUCUGGAUUCCUCGUCACUCAGCAGGCCAUCUCUGAGAGAAACGCC [G127C U143C] | 1.61 |
| UACGUAGGUGGUUUUCCCCUGAUAGUGCUAAGGGGGCCUGGAAGUCUGGACUGGGCAGAGCUCAACACAGCGUGGCAAAGUGGCUGUGGCUAGACUGCCUCUCUGGAUUCCUCGUCACGCAGCAGGGCAUCUCUGAGAGAAAUGCC [U46C U119G] | 1.02 |
| UACGUAGGUGGUUUCCCCCUGAUAGUGCUAAGGGGGCCUGGAAGUUUGGACUGGGCCGAGCUCAACACAGCGUGGCAAAGUGGCUGUGGCUAGACUGCCUCUCUGGAUUCCUCGUCACUCAGCAGGGCAUCUCUGAGAGAAAUGCC [U15C A57C] | 0.09 |
| UACGUAGGUGGUUUUACCCUGAUAGUGCUAAGGGGGCCUGGAAGUUUGGACUGGGCAGAGCUCAACACAGCGUGGCAAAGUGGCUGUGGCUAGACUGCCUCUCUGGAUUCCUCGUCACUCUGCAGGGCAUCUCUGAGAGAAAUGCC [C16A A121U] | 1.97 |
| UACGUAGGUGGUUUUCCCCUGAUAGUGCUAAGGGGGCCUGGAAGUUUGGACUGGGCAGAGCUCAACACAGCGUGGCAAAGUGGCUGUGGCUAGACUGCCUCUCUGGAUUCCUCGUCACUCAACAGGGCAUCUCUGAGGGAAAUGCC [G122A A138G] | 0.78 |
| UACGUAGGUGGUUUUCCCCUGAUAGCGCUAAGGGGGCCUGGAAGUUUGGACUGGGCAGAGCUCAACACAGCGUGGCAAAGUGGCUGUGGCUAGACUGCCUCUCUGGAUUCCUCGUCACUCAGCAGGGCAUCUCUGAGAGUAAUGCC [U26C A140U] | 0.59 |
| UACGUAGGUGGUUUUCCCCUGGUAGUGCUAAGGGGGCCUGGAAGUUUGGACUGGGCAGAGCUCAACAUAGCGUGGCAAAGUGGCUGUGGCUAGACUGCCUCUCUGGAUUCCUCGUCACUCAGCAGGGCAUCUCUGAGAGAAAUGCC [A22G C68U] | 0.98 |
| CACGUAGGUGGUUUUCCCCUGAUAGUGCUAAGGGGGCCUGGAAGUUUGGACUGGGCAGAGCUCAACACAGCGUGGCAAAGUGGCUGUGGCUAGACUGCCUCCCUGGAUUCCUCGUCACUCAGCAGGGCAUCUCUGAGAGAAAUGCC [U1C U102C] | 1.03 |
| UACGUAGGUGGUUUUCCCCUGAUAGUGCUAAGGGGGCCUGGAAGUUUGGACUGGGCAGAGCUCAACACAGCGUGGCAAAGUGGCUGUGGCUAGACUGCUUCUCUGGAUUCCACGUCACUCAGCAGGGCAUCUCUGAGAGAAAUGCC [C99U U112A] | 1.12 |
| UACGUAGGUGAUUUUCCCCGGAUAGUGCUAAGGGGGCCUGGAAGUUUGGACUGGGCAGAGCUCAACACAGCGUGGCAAAGUGGCUGUGGCUAGACUGCCUCUCUGGAUUCCUCGUCACUCAGCAGGGCAUCUCUGAGAGAAAUGCC [G11A U20G] | 1.05 |
| UACGUAGGUGGUUUUCCCCUGAUAGUGCUAUGGGGGCCUGGAAGUUUGGACUGGGCAGGGCUCAACACAGCGUGGCAAAGUGGCUGUGGCUAGACUGCCUCUCUGGAUUCCUCGUCACUCAGCAGGGCAUCUCUGAGAGAAAUGCC [A31U A59G] | 0.14 |
| UGCGUAGGUGGUUUUCCCCUGAUAGUGCUAAGGGGGCCUGGUAGUUUGGACUGGGCAGAGCUCAACACAGCGUGGCAAAGUGGCUGUGGCUAGACUGCCUCUCUGGAUUCCUCGUCACUCAGCAGGGCAUCUCUGAGAGAAAUGCC [A2G A42U] | 0.69 |
| UACGUAGGUGGGUUUCCCCUGAUAGUGCUAAGGGGGCCUGGAAGUUUGGACUGGGCAGAGCUCAACACAGCGUGGCAAAGUGGCUGUGGCUAGACUGCCUCUCUGGAGUCCUCGUCACUCAGCAGGGCAUCUCUGAGAGAAAUGCC [U12G U108G] | 0.82 |
